Assays:
[1] = biological target: Toll (Drosophila melanogaster) (UniProt P08953); conditions: cited from earlier work
[2] = biological target: TollN6-VLR (hybrid of Toll residues 28-228 and variable lymphocyte receptor B.61 residues 133-201) (Drosophila melanogaster | hagfish) (UniProt P08953); experiment: dynamic light scattering; 100 mM NaCl, 50 mM Tris-HCl pH 7.0, about 200 μg/ml; Z-average diameter 12.7 nm, polydispersion index about 0.1
[3] = biological target: single and double mutations of Cys 34, Cys 43 and Cys 45 in the Toll-TLR4 chimera
[4] = biological target: T1, full-length Toll ECD (extracellular domain of Drosophila melanogaster Toll) (Drosophila melanogaster, UniProt P08953 28-807); experiment: SEC; data not shown; same preparation of C-106 with full-length Toll ECD, complexes elute as 280 kDa species; conditions: both partners purified
T1 construct: Toll, Drosophila melanogaster, UniProt P08953, full-length extracellular domain; Also used as the target of the functional row on endogenous Toll of S2 cells (no molecule of its own was made for the whole receptor); also called full-length ECD; full-length ectodomain
T1 sequence (looked up): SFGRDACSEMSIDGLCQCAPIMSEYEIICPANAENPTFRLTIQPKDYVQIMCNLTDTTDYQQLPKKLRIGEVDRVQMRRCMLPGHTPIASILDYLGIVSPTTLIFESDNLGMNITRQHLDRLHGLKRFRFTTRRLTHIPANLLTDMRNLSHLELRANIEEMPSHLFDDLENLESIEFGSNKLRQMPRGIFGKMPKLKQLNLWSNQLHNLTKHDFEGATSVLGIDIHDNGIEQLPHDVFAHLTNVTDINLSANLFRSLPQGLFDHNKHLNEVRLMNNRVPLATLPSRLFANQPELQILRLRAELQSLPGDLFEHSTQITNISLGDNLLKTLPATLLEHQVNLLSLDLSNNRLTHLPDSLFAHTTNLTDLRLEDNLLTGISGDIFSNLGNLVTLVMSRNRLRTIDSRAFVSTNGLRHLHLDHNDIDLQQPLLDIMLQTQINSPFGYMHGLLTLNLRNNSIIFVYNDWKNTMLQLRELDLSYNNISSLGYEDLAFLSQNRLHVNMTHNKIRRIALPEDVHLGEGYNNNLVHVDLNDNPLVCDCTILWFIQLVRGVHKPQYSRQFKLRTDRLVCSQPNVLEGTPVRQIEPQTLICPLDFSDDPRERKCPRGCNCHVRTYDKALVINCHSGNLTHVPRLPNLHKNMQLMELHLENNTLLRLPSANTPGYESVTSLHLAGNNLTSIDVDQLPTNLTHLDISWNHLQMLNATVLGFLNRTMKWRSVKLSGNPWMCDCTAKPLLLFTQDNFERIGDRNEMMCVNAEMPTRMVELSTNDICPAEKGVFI

[5] = biological target: T2, TollN13-VLR (Toll N-terminal region up to LRR13 fused to VLR B.61 residues 133-201) (Drosophila melanogaster | hagfish, UniProt P08953 28-397; Q4G1L2 133-201); experiment: SEC; gel filtration of the Toll-VLR constructs alone and mixed with Spz C-106 (TollN6-VLR and C-106 in equimolar concentrations); conditions: both partners purified
T2 construct: Toll, Drosophila melanogaster, UniProt P08953, residues 28-397 (first 13 LRRs); cloned as residues 1-397 with its own signal peptide; the results say 'up to Leu 398 in LRR13'; variable lymphocyte receptor (VLR) B.61 of hagfish, residues Asn 133-Thr 201 (LRRCT cap); C-terminal limit of the Toll part is printed as 397 (methods, discussion) and as Leu 398 (results); also called larger Toll …
T2 chain (looked up): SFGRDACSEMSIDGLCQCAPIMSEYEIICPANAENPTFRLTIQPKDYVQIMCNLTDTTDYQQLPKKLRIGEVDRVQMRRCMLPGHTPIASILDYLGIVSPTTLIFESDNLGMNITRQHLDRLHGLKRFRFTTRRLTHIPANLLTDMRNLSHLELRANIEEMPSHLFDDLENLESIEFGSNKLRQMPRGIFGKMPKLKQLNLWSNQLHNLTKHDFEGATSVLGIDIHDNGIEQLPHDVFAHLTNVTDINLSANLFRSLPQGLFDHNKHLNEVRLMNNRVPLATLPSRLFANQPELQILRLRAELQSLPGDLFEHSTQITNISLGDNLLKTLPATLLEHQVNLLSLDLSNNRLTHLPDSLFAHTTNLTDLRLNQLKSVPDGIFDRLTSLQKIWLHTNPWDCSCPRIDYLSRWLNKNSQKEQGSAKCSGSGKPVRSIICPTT

Toll (from UniProt P08953)
Kd [1]: 2000 nM

TollN6-VLR (hybrid of Toll residues 28-228 and variable lymphocyte receptor B.61 residues 133-201) (from UniProt P08953 28-228; Q4G1L2 133-201) (domain or fragment)
stoichiometry N [2]: 4

B1: Spätzle C-106 (C-terminal active fragment of 106 amino acids of processed Spätzle) (ligand, Drosophila melanogaster, UniProt P48607 221-326, looked up)
chain: VGGSDERFLCRSIRKLVYPKKGLRADDTWQLIVNNDEYKQAIQIEECEGADQPCDFAANFPQSYNPICKQHYTQQTLASIKSDGELDVVQNSFKIPSCCKCALKTG
notes: Spätzle (Spz), Drosophila melanogaster; also called cleaved Spz; source: baculovirus expression system, His-tagged Spätzle, purified
NF-κB luciferase reporter in HEK293ET cells transfected with the Toll-TLR4 chimera, 24 hr after Spz stimulation at 10 nM; decrease of the signal against the wild-type chimera [3]: 10 % decrease
stoichiometry N [4]: 1 ratio (2:2 as printed)
stoichiometry N [5]: 1 ratio (1:1 as printed)
